Source: PMC4613514

Target: Keap1–mCherry (Kelch-like ECH associated protein 1 fused to mCherry) (UniProt Q9Z2X8)
Test: FRET or BRET

Sequence of UniProt Q9Z2X8 (Q9Z2X8 whole entry, the tested form may be a part): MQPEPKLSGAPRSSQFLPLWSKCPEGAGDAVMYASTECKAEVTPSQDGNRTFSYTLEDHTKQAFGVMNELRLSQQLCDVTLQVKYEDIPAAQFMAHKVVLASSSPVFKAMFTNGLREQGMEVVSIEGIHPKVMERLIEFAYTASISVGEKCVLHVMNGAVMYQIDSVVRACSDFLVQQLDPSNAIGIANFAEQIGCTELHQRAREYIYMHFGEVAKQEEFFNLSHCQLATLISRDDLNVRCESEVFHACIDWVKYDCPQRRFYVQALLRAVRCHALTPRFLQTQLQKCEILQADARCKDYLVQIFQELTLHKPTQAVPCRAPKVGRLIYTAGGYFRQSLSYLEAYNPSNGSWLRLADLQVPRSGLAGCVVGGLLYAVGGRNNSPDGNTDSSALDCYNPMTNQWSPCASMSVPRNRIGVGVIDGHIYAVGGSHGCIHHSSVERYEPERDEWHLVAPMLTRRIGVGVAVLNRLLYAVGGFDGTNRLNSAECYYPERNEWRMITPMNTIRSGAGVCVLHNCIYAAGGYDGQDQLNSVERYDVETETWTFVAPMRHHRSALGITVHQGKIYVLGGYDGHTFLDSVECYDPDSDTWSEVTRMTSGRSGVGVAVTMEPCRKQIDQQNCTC

| E-FRET (major peak) [%] | Substance |
| --- | --- |
| 21 | EGFP–Nrf2 double ETGE (from UniProt Q60795 1-597) (natural protein) |
| 13 | EGFP–Nrf2ΔDLG (from UniProt Q60795 1-597) (natural protein) |
